The record followed here is publication PMC11874374.

For orientation: stoichiometry N means the number of molecules, sites or subunits per partner or assembly.

Assay [1] has as its target histidine-tagged JAM-A (human) (UniProt Q9Y624). In words: non-reducing gel electrophoresis.
For assay [2], the target named is recombinant human JAM-A (Junctional Adhesion Molecule-A) (human) (UniProt Q9Y624). In words: non-reducing gel electrophoresis.

“histidine-tagged JAM-A (from UniProt Q9Y624 28-299) (natural protein)”: in assay [1], the stoichiometry N was determined as 2. With “recombinant human JAM-A (Junctional Adhesion Molecule-A) (from UniProt Q9Y624 28-299) (natural protein)”, the stoichiometry N in assay [2] amounted to 3.
